In patent publication US20230037815A1 (CULLINAN THERAPEUTICS, published 2023):
Positions count from the first letter of the chain named. Each block holds one binder with its values, some of them ahead of it.

Assays:
human CD19 = target: T1, human CD19 (human, UniProt P15391 20-291, biotinylated in the Biacore assay of Table 11); test: Octet HTX (ForteBio), IgG on AHC sensor, 1:1 fit
T1 construct: also called isolated CD19; Human CD19 Protein
T1 sequence (looked up): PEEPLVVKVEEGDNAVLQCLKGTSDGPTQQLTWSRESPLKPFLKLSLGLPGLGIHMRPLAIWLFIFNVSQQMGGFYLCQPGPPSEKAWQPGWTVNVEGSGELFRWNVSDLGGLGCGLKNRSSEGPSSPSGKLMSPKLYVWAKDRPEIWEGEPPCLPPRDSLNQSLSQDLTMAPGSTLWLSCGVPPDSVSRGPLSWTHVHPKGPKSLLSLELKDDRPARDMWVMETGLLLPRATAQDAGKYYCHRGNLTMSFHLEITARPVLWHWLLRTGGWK
Method: The binding affinity of the antibodies to isolated CD19 was measured by […] using a ForteBio Octet HTX system as previously described (see, e.g., Estep et al, High throughput solution-based measurement of antibody-antigen affinity and epitope binning. Mabs 5(2), 270-278 (2013)). Briefly, ForteBio affinity measurements were performed by loading IgGs on-line onto anti-hIgG Fc Capture (AHC) sensors. The sensors were equilibrated off-line in assay buffer for 30 minutes and then monitored on-line for 60 seconds for baseline establishment. The sensors with loaded IgGs were exposed to 100 nM […] for 3 minutes, and subsequently transferred to assay buffer for 3 minutes for off-rate measurement. All kinetics were analyzed using the 1:1 binding model.

human CD19 on CHO cells = target: T2, human CD19 on CHO cells (human, UniProt P15391 20-556); test: flow cytometry, CHO cells, 100 nM IgG
T2 construct: whole, on cells; also called Cells Expressing Human CD19; CHO cells overexpressing the antigen
T2 sequence (looked up): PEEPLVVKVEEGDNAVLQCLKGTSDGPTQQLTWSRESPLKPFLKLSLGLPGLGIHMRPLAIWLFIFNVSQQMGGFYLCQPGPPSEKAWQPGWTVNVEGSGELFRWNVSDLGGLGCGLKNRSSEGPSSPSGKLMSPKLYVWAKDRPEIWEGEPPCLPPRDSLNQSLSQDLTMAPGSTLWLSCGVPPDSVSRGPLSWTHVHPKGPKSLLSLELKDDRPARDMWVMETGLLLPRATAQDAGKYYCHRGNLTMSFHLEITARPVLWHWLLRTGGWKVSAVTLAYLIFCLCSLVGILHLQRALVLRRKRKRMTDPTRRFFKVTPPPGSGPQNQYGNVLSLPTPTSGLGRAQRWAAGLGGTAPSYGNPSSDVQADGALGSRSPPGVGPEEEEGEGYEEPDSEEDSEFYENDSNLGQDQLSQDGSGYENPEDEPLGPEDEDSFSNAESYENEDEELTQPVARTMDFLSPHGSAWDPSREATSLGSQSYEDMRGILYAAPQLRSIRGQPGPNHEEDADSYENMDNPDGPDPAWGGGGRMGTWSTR
Method: The binding affinity of the antibodies to CD19 expressed on the cell surface was also measured. Briefly, approximately 100,000 Chinese hamster overy (CHO) cells overexpressing the antigen were washed with wash buffer and incubated with 100 μl 100 nM IgG for 15 minutes at room temperature. Cells were then washed twice with wash buffer and incubated with 100 μl of 1:100 Human-PE for 15 minutes on ice. Cells were then washed twice more with wash buffer and analyzed on a FACS Canto II analyzer (BD Biosciences).

mouse serum albumin [1] = target: T3, mouse serum albumin (mouse, UniProt P07724 25-608); test: ratio of the Octet KD for mouse serum albumin to that for human serum albumin
T3 construct: also called MSA
T3 sequence (P07724 25-608 limits assumed): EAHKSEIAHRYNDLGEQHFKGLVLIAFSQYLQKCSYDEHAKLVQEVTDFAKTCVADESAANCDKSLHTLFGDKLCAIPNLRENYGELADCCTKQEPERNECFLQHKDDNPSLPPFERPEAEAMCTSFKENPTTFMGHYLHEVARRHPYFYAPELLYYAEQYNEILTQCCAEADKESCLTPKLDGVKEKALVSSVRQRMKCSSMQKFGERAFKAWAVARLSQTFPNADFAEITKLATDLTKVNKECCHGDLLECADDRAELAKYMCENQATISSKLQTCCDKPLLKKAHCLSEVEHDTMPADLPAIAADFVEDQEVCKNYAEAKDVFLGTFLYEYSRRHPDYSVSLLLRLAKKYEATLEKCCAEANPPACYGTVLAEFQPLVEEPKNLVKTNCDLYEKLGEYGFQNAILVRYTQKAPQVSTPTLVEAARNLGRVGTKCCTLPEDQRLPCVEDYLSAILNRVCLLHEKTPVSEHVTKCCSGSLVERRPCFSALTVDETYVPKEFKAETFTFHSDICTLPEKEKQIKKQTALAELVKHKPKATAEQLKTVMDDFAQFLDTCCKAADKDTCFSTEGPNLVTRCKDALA

human serum albumin = target: T4, human serum albumin (human, UniProt P02768 25-609); test: Octet HTX (ForteBio), HCAb on AHC sensor, 1:1 fit
T4 construct: also called HSA

mouse serum albumin [2] = target: T3, mouse serum albumin; test: Octet HTX (ForteBio), HCAb on AHC sensor, 1:1 fit
cynomolgus serum albumin = cynomolgus serum albumin (cynomolgus, UniProt A2V9Z4 25-608); test: Octet HTX (ForteBio), HCAb on AHC sensor, 1:1 fit
Sequence of cynomolgus serum albumin (A2V9Z4 25-608 limits assumed): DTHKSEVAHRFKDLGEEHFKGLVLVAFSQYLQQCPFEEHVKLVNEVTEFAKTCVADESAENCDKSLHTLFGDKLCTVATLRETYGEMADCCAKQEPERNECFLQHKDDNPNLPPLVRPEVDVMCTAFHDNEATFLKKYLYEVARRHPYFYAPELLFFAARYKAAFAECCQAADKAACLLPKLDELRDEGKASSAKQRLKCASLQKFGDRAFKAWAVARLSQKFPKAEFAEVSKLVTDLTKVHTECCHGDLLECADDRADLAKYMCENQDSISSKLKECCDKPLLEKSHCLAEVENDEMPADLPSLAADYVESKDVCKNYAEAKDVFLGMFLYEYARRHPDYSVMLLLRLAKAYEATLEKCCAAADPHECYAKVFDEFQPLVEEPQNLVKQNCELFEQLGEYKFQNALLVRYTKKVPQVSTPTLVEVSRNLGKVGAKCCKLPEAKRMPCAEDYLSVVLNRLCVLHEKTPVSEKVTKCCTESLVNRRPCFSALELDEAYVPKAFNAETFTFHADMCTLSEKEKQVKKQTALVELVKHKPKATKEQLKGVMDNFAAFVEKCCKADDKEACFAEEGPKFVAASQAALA

Kd (human CD19): 2.25 nM | koff (human CD19): 0.000396 s⁻¹ | Binding to Cells Expressing Human CD19 (FOB) (human CD19 on CHO cells): 71 FOB
B1: CNG-CD19-7 (antibody, V domains shown)
VH: QVQLQESGPGLVKPSQTLSLTCTVSGGSISTSGMGVGWIRQHPGKGLEWIGHIWWDDDKRYNPALKSRVTISVDTSKNQFSLKLSSVTAADTAVYYCARMELWSYYFDYWGQGTLVTVSS
VL: EIVLTQSPATLSLSPGERATLSCSASSSVSYMHWYQQKPGQAPRLLIYDTSKLASGIPARFSGSGSGTDFTLTISSLEPEDFAVYYCFQGSVYPFTFGQGTKLEIK
notes: tested as IgG; also called parental antibody

Kd (human CD19): 0.367 nM | koff (human CD19): 0.000101 s⁻¹ | Binding to Cells Expressing Human CD19 (FOB) (human CD19 on CHO cells): 140 FOB
B2: CNG-CD19-704 (antibody, V domains shown)
VH: QVQLQESGPGLVKPSQTLSLTCTVSGGSIASGMGVGWIRQHPGKGLEWIGHIWWDDDKRYNPALKSRVTISVDTSKNQFSLKLSSVTAADTAVYYCARMELWSYYFDGWGQGTLVTVSS
VL: B1 VL
notes: tested as IgG produced in yeast

Kd (human CD19): 0.289 nM | koff (human CD19): 8.19e-05 s⁻¹ | Binding to Cells Expressing Human CD19 (FOB) (human CD19 on CHO cells): 135 FOB
B3: CNG-CD19-703 (antibody, V domains shown)
VH: B1 VH with G33T, H52F, A64N, I71M, D108E
VL: B1 VL
notes: as for B2

Kd (human CD19): 0.156 nM | koff (human CD19): 6.69e-05 s⁻¹ | Binding to Cells Expressing Human CD19 (FOB) (human CD19 on CHO cells): 210 FOB
B4: CNG-CD19-708 (antibody, V domains shown)
VH: B1 VH with G33T, H52F, A64N, I71M, Y109P
VL: B1 VL with S30G, A54S
notes: as for B2

Kd (human CD19): 0.107 nM | koff (human CD19): 4.6e-05 s⁻¹ | Binding to Cells Expressing Human CD19 (FOB) (human CD19 on CHO cells): 234 FOB
B5: CNG-CD19-709 (antibody, V domains shown)
VH: B1 VH with G33T, H52F, A64N, I71M, Y109P
VL: B1 VL with S30G, S55F
notes: as for B2

Kd (human CD19): 0.5 nM | koff (human CD19): 0.000175 s⁻¹ | Binding to Cells Expressing Human CD19 (FOB) (human CD19 on CHO cells): 180 FOB
B6: CNG-CD19-702 (antibody, V domains shown)
VH: B1 VH with I29T, G37S, A64V, Y109P
VL: B1 VL
notes: as for B2

Kd (human CD19): 0.187 nM | koff (human CD19): 7.05e-05 s⁻¹ | Binding to Cells Expressing Human CD19 (FOB) (human CD19 on CHO cells): 195 FOB
B7: CNG-CD19-701 (antibody, V domains shown)
VH: B1 VH with G33T, H52F, A64N, I71M
VL: B1 VL with S30G
notes: as for B2

Kd (human CD19): 0.0859 nM | koff (human CD19): 4e-05 s⁻¹ | Binding to Cells Expressing Human CD19 (FOB) (human CD19 on CHO cells): 241 FOB
B8: CNG-CD19-706 (antibody, V domains shown)
VH: B2 VH with G36S, G108P
VL: B1 VL with S30G
notes: as for B2

Kd (human CD19): 0.248 nM | koff (human CD19): 4.7e-05 s⁻¹ | Binding to Cells Expressing Human CD19 (FOB) (human CD19 on CHO cells): 105 FOB
B9: CNG-CD19-705 (antibody, V domains shown)
VH: B1 VH
VL: B1 VL with S30G, K52S
notes: as for B2

Kd (human CD19): 0.135 nM | koff (human CD19): 4e-05 s⁻¹ | Binding to Cells Expressing Human CD19 (FOB) (human CD19 on CHO cells): 153 FOB
B10: CNG-CD19-710 (antibody, V domains shown)
VH: B1 VH with G27V, G33S, I53A, Y109P
VL: B1 VL with V29F
notes: as for B2

Kd (human CD19): 0.104 nM | koff (human CD19): 4.66e-05 s⁻¹ | Binding to Cells Expressing Human CD19 (FOB) (human CD19 on CHO cells): 237 FOB
B11: CNG-CD19-707 (antibody, V domains shown)
VH: B1 VH with G33T, H52F, A64N, I71M, Y109P
VL: B1 VL with S30G
notes: as for B2

Kd (human CD19): 0.346 nM | koff (human CD19): 0.000114 s⁻¹ | Binding to Cells Expressing Human CD19 (FOB) (human CD19 on CHO cells): 267 FOB
B12: CNG-CD19-1 (antibody, V domains shown)
VH: QVQLVQSGAEVKKPGASVKVSCKASGYTFTDYIMHWVRQAPGQGLEWMGYINPYNDGSKYTEKFQGRVTMTSDTSISTAYMELSRLRSDDTAVYYCARGTYYYGPQLFDYWGQGTTVTVSS
VL: DIVMTQTPLSLSVTPGQPASISCKSSQSLETSTGTTYLNWYLQKPGQSPQLLIYRVSKRFSGVPDRFSGSGSGTDFTLKISRVEAEDVGVYYCLQLLEDPYTFGQGTKLEIK
notes: as for B1

Kd (human CD19): 0.277 nM | koff (human CD19): 5.71e-05 s⁻¹ | Binding to Cells Expressing Human CD19 (FOB) (human CD19 on CHO cells): 315 FOB
B13: CNG-CD19-107 (antibody, V domains shown)
VH: B12 VH with T28D, G66H
VL: B12 VL with K58R
notes: as for B2

Kd (human CD19): 0.353 nM | koff (human CD19): 0.000121 s⁻¹ | Binding to Cells Expressing Human CD19 (FOB) (human CD19 on CHO cells): 293 FOB
B14: CNG-CD19-110 (antibody, V domains shown)
VH: B12 VH
VL: B12 VL with V56S, Y101P
notes: as for B2

Kd (human CD19): 0.106 nM | koff (human CD19): 4e-05 s⁻¹ | Binding to Cells Expressing Human CD19 (FOB) (human CD19 on CHO cells): 286 FOB
B15: CNG-CD19-103 (antibody, V domains shown)
VH: B12 VH
VL: B12 VL with S32A, K58R, T102S
notes: as for B2

Kd (human CD19): 0.298 nM | koff (human CD19): 9.12e-05 s⁻¹ | Binding to Cells Expressing Human CD19 (FOB) (human CD19 on CHO cells): 258 FOB
B16: CNG-CD19-102 (antibody, V domains shown)
VH: B12 VH with T28E, G66P
VL: B12 VL
notes: as for B2

Kd (human CD19): 0.144 nM | koff (human CD19): 5.72e-05 s⁻¹ | Binding to Cells Expressing Human CD19 (FOB) (human CD19 on CHO cells): 296 FOB
B17: CNG-CD19-101 (antibody, V domains shown)
VH: B12 VH with T28D, E62D, G66E, Q106E
VL: B12 VL with S32T, V56A
notes: as for B2

Kd (human CD19): 0.164 nM | koff (human CD19): 8.28e-05 s⁻¹ | Binding to Cells Expressing Human CD19 (FOB) (human CD19 on CHO cells): 351 FOB
B18: CNG-CD19-105 (antibody, V domains shown)
VH: B12 VH with T28E, Q65E, Q106E
VL: B12 VL with S28R, K58R, Y101P
notes: as for B2

Kd (human CD19): 0.164 nM | koff (human CD19): 5.26e-05 s⁻¹ | Binding to Cells Expressing Human CD19 (FOB) (human CD19 on CHO cells): 319 FOB
B19: CNG-CD19-108 (antibody, V domains shown)
VH: B12 VH with T28D, M34V
VL: B12 VL with S32V, Y101P
notes: as for B2

Kd (human CD19): 0.189 nM | koff (human CD19): 0.000114 s⁻¹ | Binding to Cells Expressing Human CD19 (FOB) (human CD19 on CHO cells): 354 FOB
B20: CNG-CD19-106 (antibody, V domains shown)
VH: B12 VH with T28D, K59E
VL: B12 VL with S32A, K58R
notes: as for B2

Kd (human CD19): 0.144 nM | koff (human CD19): 4e-05 s⁻¹ | Binding to Cells Expressing Human CD19 (FOB) (human CD19 on CHO cells): 334 FOB
B21: CNG-CD19-109 (antibody, V domains shown)
VH: B12 VH with T28D, M34V, K59L
VL: B12 VL with S28Q, V56A, T102S
notes: as for B2

Kd (human CD19): 0.144 nM | koff (human CD19): 6e-05 s⁻¹ | Binding to Cells Expressing Human CD19 (FOB) (human CD19 on CHO cells): 327 FOB
B22: CNG-CD19-104 (antibody, V domains shown)
VH: B12 VH with T28D, M34V, Q106E
VL: B12 VL with S26G, K58R
notes: as for B2

Ratio of MSA-KD to HSA-KD (mouse serum albumin [1]): 1.2 | Kd (human serum albumin): 14.7 nM | koff (human serum albumin): 0.00221 s⁻¹ | Kd (mouse serum albumin [2]): 17.5 nM | koff (mouse serum albumin [2]): 0.0038 s⁻¹ | Kd (cynomolgus serum albumin): 12 nM | koff (cynomolgus serum albumin): 0.00173 s⁻¹
B23: CNG-HSA-114 (VHH)
VHH: KVQLVESGGGLVQPGNSLRLSCAASGFTFSSFGMSWVRQAPGKGLEWVSSISGSGSDTLTADSVKGRFTISRDNSKNTLYLQMNSLRAEDTAVYYCTIGGSLVRSSQGTLVTVSS

Ratio of MSA-KD to HSA-KD (mouse serum albumin [1]): 2.17 | Kd (human serum albumin): 2.96 nM | koff (human serum albumin): 0.000441 s⁻¹ | Kd (mouse serum albumin [2]): 6.43 nM | koff (mouse serum albumin [2]): 0.00132 s⁻¹ | Kd (cynomolgus serum albumin): 3.37 nM | koff (cynomolgus serum albumin): 0.000618 s⁻¹
B24: CNG-HSA-115 (VHH)
VHH: B23 VHH with S35G, T60Y, D62P, A88P, I98F, G99A, V103S
